Where “and” joins values, the source holds several entries; their conditions need not be identical. Equal entries are not always repeated.

The labels stand for the following.
B3: AorC, FAD-containing NAD-binding subunit of the aldehyde oxidoreductase from Aromatoleum aromaticum (AORAa) (natural protein)
chain: MKHVILGNGPAGVIAAETLRRAAPTDDILLFGSEDAPPYSRMAIPYLLEGNIDESGTWLRKSPGHFDRLRIHEMRGRAVSLDSERRRILFDDGHFESWDRLLIATGSHPVRPPIPGIDLPEVQTCWTLEDARAIARFATPGARVLQLGAGFIGCIIMEALAARGVELTVVEMGDRMVPRMMTPTAGGMIRKWVEDQGVRVVTNAGVSRIDCRASNDAPLDVTLSTGEVVVADLVIVAAGVAPNIAFLEATPVHVAKGVLVDDRLQTSVPGIFAAGDVAEAPDLFTGAHLVAAIQPNAADQARVAALNMAGHEARLKGVLAINVLDTLGLISSSFGQWWGEERERGGAGVEHVDEAAYRYLSLQFKDDVLIGATSIGLTEHVGALRGLIHGRVRLGEWKERLLHSPLQFVDAYIARSQQPMALVR
notes: AorC of Aromatoleum aromaticum, Rossmann fold with an extended C-terminal domain of three α helices; A single copy per Aor(AB)nC complex; also called FAD-containing subunit; source: Aromatoleum evansii, heterologous expression of the AOR plasmid; Superdex 200 gel filtration for the wild-type complex, not for Δhelix-AOR

For data set [1], the target named is T1, AORAa (Aor(AB)nC complex; FAD-containing subunit AorC) (Aromatoleum aromaticum, UniProt Q5P142).
T1 construct: same complex as P1, site in AorC; N-terminal twin-Strep-tag on AorA; expressed in Aromatoleum evansii; modelled Aor(AB)2C; with Aldehyde oxidoreductase, polyferredoxin-like iron-sulfur subunit AorA; Aldehyde oxidoreductase, tungsten-containing catalytic subunit AorB (aldehyde:ferredoxin oxidoreductase)
T1 sequence (Q5P142 1-424): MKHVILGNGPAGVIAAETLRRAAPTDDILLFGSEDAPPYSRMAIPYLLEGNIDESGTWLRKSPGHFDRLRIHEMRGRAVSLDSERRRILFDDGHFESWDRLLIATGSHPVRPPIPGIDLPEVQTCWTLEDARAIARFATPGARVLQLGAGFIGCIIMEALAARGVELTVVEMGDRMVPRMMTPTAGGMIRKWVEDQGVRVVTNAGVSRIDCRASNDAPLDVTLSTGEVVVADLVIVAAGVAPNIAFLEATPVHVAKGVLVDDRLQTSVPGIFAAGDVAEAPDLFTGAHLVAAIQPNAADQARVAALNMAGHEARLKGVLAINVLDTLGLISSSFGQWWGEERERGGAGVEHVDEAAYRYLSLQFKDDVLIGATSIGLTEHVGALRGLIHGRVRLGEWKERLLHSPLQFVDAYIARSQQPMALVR
T1 sequence (Q5P144 1-158 partner): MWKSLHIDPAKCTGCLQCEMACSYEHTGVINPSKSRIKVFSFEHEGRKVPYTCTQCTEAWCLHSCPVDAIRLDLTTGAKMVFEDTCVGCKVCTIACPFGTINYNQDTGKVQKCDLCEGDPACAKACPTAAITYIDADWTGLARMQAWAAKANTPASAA
T1 sequence (Q5P143 1-616 partner): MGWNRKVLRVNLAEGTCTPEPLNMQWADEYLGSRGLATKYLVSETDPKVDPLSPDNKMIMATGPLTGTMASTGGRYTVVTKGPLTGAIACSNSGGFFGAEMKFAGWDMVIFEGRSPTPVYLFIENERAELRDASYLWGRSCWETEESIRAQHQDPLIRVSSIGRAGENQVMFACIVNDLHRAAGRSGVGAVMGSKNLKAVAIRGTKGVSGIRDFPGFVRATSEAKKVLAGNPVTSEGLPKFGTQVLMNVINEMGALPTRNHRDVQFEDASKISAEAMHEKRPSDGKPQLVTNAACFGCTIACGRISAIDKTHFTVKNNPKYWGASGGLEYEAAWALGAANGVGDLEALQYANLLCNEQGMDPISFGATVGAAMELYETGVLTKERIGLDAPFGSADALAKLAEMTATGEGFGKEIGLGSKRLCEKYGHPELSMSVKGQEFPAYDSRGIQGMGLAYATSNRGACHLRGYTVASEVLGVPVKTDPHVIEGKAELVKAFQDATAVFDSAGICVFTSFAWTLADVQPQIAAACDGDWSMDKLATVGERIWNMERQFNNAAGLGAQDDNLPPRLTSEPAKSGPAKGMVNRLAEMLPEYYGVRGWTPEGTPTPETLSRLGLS
Nature of the data set: cryo-EM structure, […] A. The class given is binding. To be noted: bound in AorC; Arg41 and Glu294 (Gln294 in figure legend).

Data set [2] deals with T2, AORAa (Aor(AB)nC complex; FAD-containing subunit AorC) (Aromatoleum aromaticum, UniProt Q5P142).
T2 construct: same complex as P1, site in AorC; N-terminal twin-Strep-tag on AorA; expressed in Aromatoleum evansii; modelled Aor(AB)2C; with Aldehyde oxidoreductase, polyferredoxin-like iron-sulfur subunit AorA; Aldehyde oxidoreductase, tungsten-containing catalytic subunit AorB (aldehyde:ferredoxin oxidoreductase)
Nature of the data set: spectrophotometric specific activity. The class given is biochemical. As to conditions: hydrogen as electron donor; deletion-helix AOR.
T2 sequence (Q5P144 entry or part of it DEL138-156, one chain of several, further chain): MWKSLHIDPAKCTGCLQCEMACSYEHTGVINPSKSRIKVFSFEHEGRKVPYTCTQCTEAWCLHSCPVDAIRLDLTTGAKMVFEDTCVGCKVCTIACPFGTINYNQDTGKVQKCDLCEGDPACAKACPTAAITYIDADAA

The target in data set [3] is T3, AorA of the variant Δhelix-AOR, lacking the AorA residues from 138 to the C terminus (Aromatoleum aromaticum (strain DSM …, UniProt Q5P144)).
T3 chain: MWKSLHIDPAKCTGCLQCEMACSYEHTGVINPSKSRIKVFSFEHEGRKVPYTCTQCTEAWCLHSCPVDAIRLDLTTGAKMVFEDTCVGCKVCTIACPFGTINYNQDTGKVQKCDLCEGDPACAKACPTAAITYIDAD
The experiment in a line: mass photometry of co-purified complex.

Data set [4] addresses B3. Nature of the data set: cryo-EM structure; purified AORAa complex, 0.7 mg/ml, 50 mM Hepes pH 7.5, glycerol below 2%; native and BS3 cross-linked samples prepared; 3.22 Å map of an Aor(AB)3C complex, model of Aor(AB)2C. As to conditions: both partners purified.
Data set [5] addresses T4, AorB, catalytic tungsten-cofactor-containing subunit of the aldehyde oxidoreductase from Aromatoleum … (Aromatoleum aromaticum, UniProt Q5P143 1-616).
T4 construct: AorB of Aromatoleum aromaticum; benzoate seen in the active site; also called catalytic subunit; source: Aromatoleum evansii, heterologous expression of the AOR plasmid; Superdex 200 gel filtration for the wild-type complex, not for Δhelix-AOR
T4 sequence: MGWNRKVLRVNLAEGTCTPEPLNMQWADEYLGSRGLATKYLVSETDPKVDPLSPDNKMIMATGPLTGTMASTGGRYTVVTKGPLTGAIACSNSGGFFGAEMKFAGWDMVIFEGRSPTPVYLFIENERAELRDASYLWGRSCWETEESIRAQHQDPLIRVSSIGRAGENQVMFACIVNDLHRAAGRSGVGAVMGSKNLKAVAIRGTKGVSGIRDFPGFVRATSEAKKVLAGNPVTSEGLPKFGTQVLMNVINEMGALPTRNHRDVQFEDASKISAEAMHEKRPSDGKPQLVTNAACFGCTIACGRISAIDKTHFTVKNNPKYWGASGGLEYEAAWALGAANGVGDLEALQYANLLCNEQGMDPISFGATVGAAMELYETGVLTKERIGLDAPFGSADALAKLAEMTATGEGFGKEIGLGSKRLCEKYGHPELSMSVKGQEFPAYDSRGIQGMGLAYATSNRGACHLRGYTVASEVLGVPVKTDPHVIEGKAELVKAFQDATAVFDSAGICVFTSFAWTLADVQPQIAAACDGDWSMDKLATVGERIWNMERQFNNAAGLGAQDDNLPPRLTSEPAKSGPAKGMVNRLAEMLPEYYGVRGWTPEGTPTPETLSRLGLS
Described as above. To be noted: both partners purified.

Data set [6] deals with the molecule itself. Nature of the data set: mass photometry; OneMP mass photometer, 10 mM tris pH 8.0, 100 mM KCl, 0.1 mM EDTA, room temperature, sample diluted 10-fold just before measurement; 50 nM in Fig. 2D, E.
Data set [7] has as its target T3, AorA of the variant Δhelix-AOR, lacking …. The experiment in a line: mass photometry of co-purified complex; seen only within the AorABC complex, with AorB present.

As for `Cc1cc2nc3c(=O)[nH]c(=O)nc-3n(C[C@H](O)[C@H](O)[C@H](O)COP(=O)(O)OP(=O)(O)OC[C@H]3O[C@@H](n4cnc5c(N)ncnc54)[C@H](O)[C@@H]3O)c2cc1C` [FAD], in data set [1], the “cryo-EM structure, 3.22 A” value was “The FAD cofactor was well resolved in the electron density”.
For `NC(=O)c1ccc[n+]([C@@H]2O[C@H](COP(=O)(O)OP(=O)(O)OC[C@H]3O[C@@H](n4cnc5c(N)ncnc54)[C@H](O)[C@@H]3O)[C@@H](O)[C@H]2O)c1` [NAD^+], the specific activity result in data set [2] is reported as “NAD^+ reduction with hydrogen as an electron donor”.

B1: AorB, catalytic tungsten-cofactor-containing subunit of the aldehyde oxidoreductase from Aromatoleum aromaticum (AORAa) (protein)
chain: MGWNRKVLRVNLAEGTCTPEPLNMQWADEYLGSRGLATKYLVSETDPKVDPLSPDNKMIMATGPLTGTMASTGGRYTVVTKGPLTGAIACSNSGGFFGAEMKFAGWDMVIFEGRSPTPVYLFIENERAELRDASYLWGRSCWETEESIRAQHQDPLIRVSSIGRAGENQVMFACIVNDLHRAAGRSGVGAVMGSKNLKAVAIRGTKGVSGIRDFPGFVRATSEAKKVLAGNPVTSEGLPKFGTQVLMNVINEMGALPTRNHRDVQFEDASKISAEAMHEKRPSDGKPQLVTNAACFGCTIACGRISAIDKTHFTVKNNPKYWGASGGLEYEAAWALGAANGVGDLEALQYANLLCNEQGMDPISFGATVGAAMELYETGVLTKERIGLDAPFGSADALAKLAEMTATGEGFGKEIGLGSKRLCEKYGHPELSMSVKGQEFPAYDSRGIQGMGLAYATSNRGACHLRGYTVASEVLGVPVKTDPHVIEGKAELVKAFQDATAVFDSAGICVFTSFAWTLADVQPQIAAACDGDWSMDKLATVGERIWNMERQFNNAAGLGAQDDNLPPRLTSEPAKSGPAKGMVNRLAEMLPEYYGVRGWTPEGTPTPETLSRLGLS
Consider B1, for which the binding result in data set [3] was “binds”.

B2: AorA, polyferredoxin-like small subunit of the aldehyde oxidoreductase from Aromatoleum aromaticum (AORAa) (natural protein)
chain: MWKSLHIDPAKCTGCLQCEMACSYEHTGVINPSKSRIKVFSFEHEGRKVPYTCTQCTEAWCLHSCPVDAIRLDLTTGAKMVFEDTCVGCKVCTIACPFGTINYNQDTGKVQKCDLCEGDPACAKACPTAAITYIDADWTGLARMQAWAAKANTPASAA
notes: Two to four copies per Aor(AB)nC complex; Carries four Fe4S4 clusters; also called small subunit AorA; electron transfer subunit; source: Aromatoleum evansii, heterologous expression of the AOR plasmid
For B2, the binding result in data set [4] and in data set [5] was “binds” throughout. In data set [6], the “stoichiometry N” value was 2 and 3 and 4.
B3: the binding result in data set [7] and in data set [5] was “binds” throughout.

Usually stoichiometry N stands for a count of units in the complex or per binding partner.

These data come from paper PMC10413684, “A bacterial tungsten-containing aldehyde oxidoreductase forms an enzymatic decorated protein nanowire” (Science Advances, 2023).
